Laboratory results taken from the nanobody polyreactivity screen of Harvey et al. (2022).

Assay: yeast display, Sf9 membrane polyspecificity reagent, FACS + sequencing; frameworks hold sequencing errors
In short: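 Nanobodies came from a synthetic yeast display library in Saccharomyces cerevisiae BJ5465, induced with galactose for 36–48 hours and stained for 1 hour at 4 °C with 10% biotinylated, detergent-solubilized Sf9 membrane reagent. Cells were enriched on streptavidin microbeads and then FACS-sorted, with low and high (top ~1%) gates set on anti-HA fluorescence for expression and streptavidin fluorescence for reagent binding. Each polyreactivity label reflects the gate a clone came from. Genes were amplified by colony PCR, sequenced by MiSeq 2 × 250 and filtered by CDR length.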

Which “polyreactivity (PSR sort gate)” value does the source give for “QVQLVESGGGLVQAGGSLRLSCAASGRTFTYYAMGWSRQAPGKERECVSAISSTGTSTYYADSVKGRFTISRDNAKNTVYLQMNSLKPEDTAVYYCNARVATYRLHSKFYYWGQGTQVTVSS” here?
Its value is “high polyreactivity”.

With “QVQLVESGGGLVQAGGSLRLSCAASGRTFTYYAMGWYRQAPGKERELVAAISSRGGSTYYADSVKGRFTISRDNAKNTVYLQMNSLNPEDTAVYYCAAVHRFTRASRWPDFDYWGQGTQVTVSS” as the sequence, how does the “polyreactivity (PSR sort gate)” value read?
The value was “high polyreactivity”.

With “QVQLVESGGGLVQAGGSLRLSCAASGRTFTYYAMGWYRQAPGKERELVAAISSTGGSTYYADSVKGRFTISRDNAKNTVTLQMNSLKPEDTAVYYCNVAFDDFDYWGQGTQVTVSS” as the sequence, how does the “polyreactivity (PSR sort gate)” value read?
Its value is “low polyreactivity”.

For “QVQLVESGGGLVQAGGSLRLSCAASGRTFTYYAMGWYRQAPGKERELVAAITSGGRTYYADSVKGRFTISRDNAKNTVYLQMKSLKPEDTAVYYCAARRIRDYYRSYDYWGQGTQVTVSS”, which “polyreactivity (PSR sort gate)” value is on record?
The value was “high polyreactivity”.

Which “polyreactivity (PSR sort gate)” value does the source give for “QVQLVESGGGLVQAGGSLRLSCAASGRTFTYYGMGWYRQAPGKERELVAAITERGDSTYYADSVKGRFTISRDNAKNTVYLQMNSLKPEDTAVYYCAAAEHLTRPSSPTQDGDHWGQGTQVTVSS” here?
Its value is “low polyreactivity”.

Which “polyreactivity (PSR sort gate)” value does the source give for “QVQLVESGGGLVQAGGSLRLSCAASGRTFTYYSMGWYRQAPGKERELVAAISSGGRTNYADSVKGRFTISRDNAKNTVYLQMNSLKPEDTAVYYCAADGTTFRNRYYFHRMDFWGQGTQVTVSS” here?
Its value is “high polyreactivity”.

With “QVQLVESGGGLVQAGGSLRLSCAASGRTFVANAMGWYRQAPGKEREFVAAITGGDSTYYADSVKGRFTISRDNAKNTVYLQMNSLKPEDTAVYYCAAPYNFWNFFDLIYVWDGYDYWGQGTQVTVSS” as the sequence, how does the “polyreactivity (PSR sort gate)” value read?
Its value is “low polyreactivity”.

Which “polyreactivity (PSR sort gate)” value does the source give for “QVQLVESGGGLVQAGGSLRLSCAASGRTFVDNGMGWYRQAPGKERELVAAITYSGGGTYYADSVKGRFTISRDNAKNTVYLQMNSLKPEDTAVYYCNAELGPVDYYGGVTPEYDYWGQGTQVTVSS” here?
Its value is “low polyreactivity”.

For “QVQLVESGGGLVQAGGSLRLSCAASGRTFVFNAMGWYRQAPGKERELVAAISRSGGSTYYADSVKGRFTISRDNAKNTVYLQMNSLKTEDTAVYYCAADTPYLRRRLGMDYWGQGTQVTVSS”, which “polyreactivity (PSR sort gate)” value is on record?
Its value is “high polyreactivity”.

Which “polyreactivity (PSR sort gate)” value does the source give for “QVQLVESGGGLVQAGGSLRLSCAASGRTFVFNDMGWYRQAPGKERELVAAITKNGGSTYYADSVKGRFTISRDTAKNTVYLHMNSLKPEDTAVYYSNASFQYYDYWGQGTQVTVSS” here?
The value was “low polyreactivity”.

With “QVQLVESGGGLVQAGGSLRLSCAASGRTFVFYAMGWYRPAPGKERQLVAAITSGTSTNYADSVKGRFTISRDNAKNTGYLQMNSLNPEDTAVYYCAAYWTDLTYSIGFGYWGQGTQVTVSS” as the sequence, how does the “polyreactivity (PSR sort gate)” value read?
The value was “low polyreactivity”.

Which “polyreactivity (PSR sort gate)” value does the source give for “QVQLVESGGGLVQAGGSLRLSCAASGRTFVHNDMGWYRQAPGKERQLVAAINVSDGSTYYADSVKGRFTISRDNAKNTVYFQMNSLKPEDTAVYYCAKASYIIFRFEYRSGYDYWGQGTQVTVSS” here?
Its value is “low polyreactivity”.

Which “polyreactivity (PSR sort gate)” value does the source give for “QVQLVESGGGLVQAGGSLRLSCAASGRTFVHYAMGWYRPAPGKERELVAAITWNGGRTYYADSVKGRFTISRDNAKNTVYLQMNSLKPEDTAVYYCAADGKYYHRRPGWPIYDYWGQGTQVTVSS” here?
The value was “high polyreactivity”.

With “QVQLVESGGGLVQAGGSLRLSCAASGRTFVIYDMGWYRQAPGKERELVAGITRSGGSTYADSVKGRFTISRDNAKNTVYLQMNSLKPEDTAVYYCARRKLYHKSPYDYWGQGTQVTVSS” as the sequence, how does the “polyreactivity (PSR sort gate)” value read?
Its value is “low polyreactivity”.

For “QVQLVESGGGLVQAGGSLRLSCAASGRTFVKNAMGWYRLAPGKERELVAAISRRGGSTYYADSVKGRFTISRDNAKNTVYLQMNSRKPEDTAVYYCAAPYTRPTTGYDYWGQGTQVTVSS”, which “polyreactivity (PSR sort gate)” value is on record?
The value was “high polyreactivity”.

For “QVQLVESGGGLVQAGGSLRLSCAASGRTFVKNAMGWYRQAPGKERELVATISSSGASTRYADSVKGRFTISRDNAKNTVYLQMNSLKPDDSAVYYCAAGYGFPRDYWGQGTQVTVSS”, which “polyreactivity (PSR sort gate)” value is on record?
The value was “high polyreactivity”.

With “QVQLVESGGGLVQAGGSLRLSCAASGRTFVKNAMGWYRQAPGKERELVAVISQSGGSTYYADSVKGRFTISRDNAKNTVYLQMNCLKPEDTAVYYCAARYSYYRQGDSWYNYNYWGQGTQVTVSS” as the sequence, how does the “polyreactivity (PSR sort gate)” value read?
The value was “high polyreactivity”.

For “QVQLVESGGGLVQAGGSLRLSCAASGRTFVKYAMGWYRQAPGKERELVAAISWSGGSTYYADSVKGRFTISRDKAKNTVYLQMNSLKPEDTAVYYCAAPSSRGQGRNFDYWGQGTQVTVSS”, which “polyreactivity (PSR sort gate)” value is on record?
The value was “high polyreactivity”.

For “QVQLVESGGGLVQAGGSLRLSCAASGRTFVLNAMGWYRPAPGKERELVAAITLGGGSTYADSVKGRFTISRDNAKNTVYLQMNSLKPEDTAVYYCAADFHYPAFEYWGQGTQVTVSS”, which “polyreactivity (PSR sort gate)” value is on record?
Its value is “low polyreactivity”.

For “QVQLVESGGGLVQAGGSLRLSCAASGRTFVPYAMGRYRQAPGKERELVAAISSSGGSTYYADSVKGRFTISRDNAKNTVYLQMNSLKPEDTAVYFCAAKSRKGGDYWGQGTQVTVSS”, which “polyreactivity (PSR sort gate)” value is on record?
Its value is “high polyreactivity”.

With “QVQLVESGGGLVQAGGSLRLSCAASGRTFVPYAMGWYRQAPGKERELVAAITWSGGRTRYADSVKGRFTISRDNAKNTVYLQMNSLKPEDTAVYYCARYYWLYSSSYDYWGQGTQVTVSS” as the sequence, how does the “polyreactivity (PSR sort gate)” value read?
Its value is “high polyreactivity”.

For “QVQLVESGGGLVQAGGSLRLSCAASGRTFVPYDMGWYRQAPGKERELVAAISSGDSTNYTDSVKGRFTISRDNAKNTVYLQMNSLKPEDTAVYYCAADLTYTMDHWGQGTQVTVSS”, which “polyreactivity (PSR sort gate)” value is on record?
The value was “low polyreactivity”.

Which “polyreactivity (PSR sort gate)” value does the source give for “QVQLVESGGGLVQAGGSLRLSCAASGRTFVQNAMGWYRQAPGKERELVAAITWSTSGTYYADSVKGRFTISRDNAKNTVYLQMNSLKPEDTAVYYCAKYLAAYTGGGGYWGQGTQVTVSS” here?
Its value is “low polyreactivity”.

For “QVQLVESGGGLVQAGGSLRLSCAASGRTFVQNAMGWYRQAPGKERELVASIRYRDGSTYYADSVKGRFTISRDNAKNTVYLQMNSLKREDTAVYYCAVRIGARGRGGKDRVYYWGQGTQVTVSS”, which “polyreactivity (PSR sort gate)” value is on record?
The value was “high polyreactivity”.

Which “polyreactivity (PSR sort gate)” value does the source give for “QVQLVESGGGLVQAGGSLRLSCAASGRTFVRYAMGWYRQAPGKEREFVAAITGSGGITYYADSVKGRFTISRDNAKNTVYLQMNSLKPEDTAVYYCAARGGFGRYWYDYWGQGTQVTVSS” here?
The value was “high polyreactivity”.

For “QVQLVESGGGLVQAGGSLRLSCAASGRTFVRYAMGWYRQAPGKERELVAAISWSGATTYYADSVKGRFTISRDNAKNTVYLQMNSLKPEDTAVYYCAARFRRGITYEYWGQGTQVTVSS”, which “polyreactivity (PSR sort gate)” value is on record?
The value was “high polyreactivity”.

With “QVQLVESGGGLVQAGGSLRLSCAASGRTFVRYTMGWYRQAPVKERELVATISYNGGRTYYADSVKGRFTISRDNAKNTVYLQMNSLKPEDTAVYYCATRLPKSSLHDYWGQGTQVTVSS” as the sequence, how does the “polyreactivity (PSR sort gate)” value read?
The value was “high polyreactivity”.

For “QVQLVESGGGLVQAGGSLRLSCAASGRTFVSNAMGWYRQAPGKERELVARITGSGGTTYYADSVKGRFTISRDNAKNTVYLQMNSLKPEDTAVYYCNADVFRKFGSPSAYKSHRYDYWGQGTQVTVSS”, which “polyreactivity (PSR sort gate)” value is on record?
The value was “low polyreactivity”.

Which “polyreactivity (PSR sort gate)” value does the source give for “QVQLVESGGGLVQAGGSLRLSCAASGRTFVSYAMGWYRQAPGKERELVATITGSTGGTYYADSVKGRFTISRDNAKNTVYLQMNSLKPEDTAVYYCNKDYYYNPGNVASGYDYWGQGTQVTVSS” here?
The value was “low polyreactivity”.

Which “polyreactivity (PSR sort gate)” value does the source give for “QVQLVESGGGLVQAGGSLRLSCAASGRTFVSYVMGWYRQAPGKERELVAAIDQSGDRTYYPDSVKGRFTISRDNAKNTVYLQMNSLKPEDTAVYYCASRWGYSSRPYYYWGQGTQVTVSS” here?
The value was “high polyreactivity”.

With “QVQLVESGGGLVQAGGSLRLSCAASGRTFVTNAMGWSRQAPGKERELVAAISSGDRTYYADSVKGRFTISRDNAKNTVYLQMNSLKPEDTAVYYCAKVSRRGIVGYWGQGTQVTVSS” as the sequence, how does the “polyreactivity (PSR sort gate)” value read?
The value was “high polyreactivity”.
